In US20030032157A1, “Polypeptides interactive with Bcl-XL” (priority 2001, published 2003):
Where no end group is shown, it is not given here.

B1: clone x42 (cDNA FLJ23277, Clone HEP03322) (peptide)
chain: NGNLFASFIADS
notes: mRNA display clone from a hypothetical or unknown polypeptide
B2: SEQ ID NO 6 (peptide)
chain: GGESDTDPHFQDALMQLAKAVASAAAALVLKAKSVAQR
notes: mRNA display clone from a known polypeptide
B3: Bcl-2 related protein BPR, clone Y75 (peptide)
peptide: TGKEAILRRLVALLEEEAEVINQKLASDPALRSKLVRLSSDSFAHL
notes: also called Bcl-2 related proline-rich protein BPR
B4: proline/glutamine rich splicing factor cluster polypeptide (peptide)
chain: RGLWVDRVLEEWGLEPRQ
notes: Selected clone translated from the incorrect reading frame of the parent mRNA; not further characterized
B5: SEQ ID NO 33 (peptide)
chain: ALSWIEMDTEMEMLLARFRRTPGDLHLDHSVHLCAHP
notes: as for B1
B6: SEQ ID NO 228 (peptide)
chain: TLRHWGLQFNTRFGV
notes: Second selection; clone from a hypothetical or unknown polypeptide
B7: SEQ ID NO 224 (peptide)
chain: KYQQLFEDIRW
notes: Second selection; clone from a known polypeptide
B8: Novel protein D, clone T25 (peptide)
peptide: GTRISDMLKLIADTWQRNCCPA-{FLAG‑M2 epitope}
modifications: cysteine pairing not given here; also: 35S-Met labelled in vitro translation product
B9: SEQ ID NO 12 (peptide)
chain: MKWDTDNTLGTEISWENKLAEGLKLTLDTIFVHHVLHAPH
notes: as for B2
B10: Talin (splice variant), clone X56 (peptide)
peptide: GGESDTDPHFQDALMQLAKAVASAAAALVLKAKSVAQR-{FLAG‑M2 epitope}
modifications: also: 35S-Met labelled in vitro translation product
notes: fragment limits not in text; also called selected Talin fragment
B11: SEQ ID NO 227 (peptide)
chain: MGDVVGFIDELEGAVSDLHRAL
notes: as for B6

How the values were obtained:
[1] = target: T1, BH3 domain binding site on Bcl-XL (Homo sapiens, UniProt Q07817); assay: Competition assay with Bak BH3 domain peptide in the Bcl-XL binding assay; settings: 20 μM Bak BH3 competitor (SEQ ID NO: 152); 100 μM for some polypeptides
T1 construct: made in house; host or cells: E. coli BL21 (DE3) pLysS
T1 sequence (Q07817 1-211): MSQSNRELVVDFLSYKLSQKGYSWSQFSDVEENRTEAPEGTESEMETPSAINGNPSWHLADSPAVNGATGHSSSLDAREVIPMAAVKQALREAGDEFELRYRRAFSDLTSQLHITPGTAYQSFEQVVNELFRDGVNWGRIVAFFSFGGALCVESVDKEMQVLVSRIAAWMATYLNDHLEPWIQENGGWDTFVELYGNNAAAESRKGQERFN
Method: (§1) Only three of the selected proteins (Bim, Bak, and Bax) were previously known to contain a BH3 domain. In order to determine if the other proteins bound to the BH3 domain binding site on Bcl-XL, a competition assay was performed. The Bak BH3 domain peptide used as a positive control was prepared by chemical synthesis and used to compete with individual Bcl-XL-binding polypeptides in a Bcl-XL binding assay. […] At a fixed concentration of immobilized Bcl-XL, the Bak BH3 domain-containing peptide […] (SEQ ID NO: 152), also containing a FLAG-M2 epitope, was added at the indicated concentration along with a trace amount of a selected Talin fragment. After binding for 1 hour, the unbound material was removed and the bound protein was quantitated. The bound protein was assayed by scintillation counting, normalized to that bound in the absence of competitor, and plotted versus competitor concentration.
A competition assay was performed for each of the selected Bcl-XL-binding polypeptides using 20 μM Bak BH3 competitor based on the titration shown in FIG. 6. Due to poor competition with the Bcl-XL-binding polypeptides having the lowest Kd values (as determined above) a second competition was performed for some of these polypeptides using 100 μM competitor (FIG. 3A).

[2] = target: T2, Bcl-XL-GST fusion protein (Homo sapiens, UniProt Q07817); assay: Free purified polypeptide binding to Bcl-XL-GST fusion protein (additional selection, FIG. 9); settings: purified free polypeptides
T2 construct: made in house; host or cells: E. coli BL21 (DE3) pLysS
T2 sequence (Q07817 1-211): as above
Method: Detection of a polypeptide binding to a Bcl-XL-glutathione S-transferase (GST) fusion protein was carried out as follows. Twenty microliters of glutathione Sepharose 4B slurry (AP Biotech) was aliquoted to a microcentrifuge tube and washed with PBS. The Bcl-XL-GST fusion protein (60 μg), prepared as describe above, was added and allowed to bind to the Sepharose beads for 1 hr at 4° C. The beads were then re-washed in selection buffer (50 mM Tris-HCL pH 7.5, 150 mM KCl, 0.05% Triton X-100, 0.5 mg/ml BSA, and 0.1 mg/ml salmon sperm DNA). The Bcl-XL-GST beads were resuspended in 100 μl of selection buffer (approximately 11.5 μM Bcl-XL) and ^35S-labeled mRNA display construct or free peptide was added (approximately 10-60 nM) and incubated on a rotator for 1 hr at 4° C. The reaction was then transferred to a microcentrifuge column (BioRad) and unbound mRNA display constructs or free peptides were removed by a 10 sec spin at 1,000 rpm. The Sepharose beads were then washed three times with 500 μl of selection buffer. The extent of binding between the Bcl-XL-GST fusion protein and the mRNA display constructs or free peptides was determined by scintillation counting each fraction, including the recovered beads. […]

[3] = target: T3, human Bcl-XL-GST fusion protein (human, UniProt P08515 1-218 = GST; Q07817 1-211); assay: mRNA display selection on immobilized Bcl-XL-GST; cluster found among sequenced clones
T3 construct: Made in E. coli, immobilized on glutathione Sepharose beads; whole entry named; also called Bcl-XL-glutathione S-transferase (GST) fusion protein; GST-BCL-XL
T3 sequence (P08515 1-218, tags or fused parts left off): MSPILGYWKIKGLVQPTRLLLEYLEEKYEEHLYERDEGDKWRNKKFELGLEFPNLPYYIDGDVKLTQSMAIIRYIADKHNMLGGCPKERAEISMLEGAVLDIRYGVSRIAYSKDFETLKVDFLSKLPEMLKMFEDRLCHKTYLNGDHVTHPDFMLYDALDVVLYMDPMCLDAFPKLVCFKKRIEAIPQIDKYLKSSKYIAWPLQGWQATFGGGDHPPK

[4] = target: T3, human Bcl-XL-GST fusion protein; assay: free peptide on immobilized Bcl-XL-GST with Bak BH3 competitor
Method: as §1
A competition assay was performed for each of the selected Bcl-XL-binding polypeptides using 20 μM Bak BH3 competitor based on the titration shown in FIG. 6.

[5] = target: T3, human Bcl-XL-GST fusion protein; assay: 35S-labeled free peptide on Bcl-XL-GST beads, target concentration varied, scintillation counting; relative Kd
Method: Detection of a polypeptide binding to a Bcl-XL-glutathione S-transferase (GST) fusion protein was carried out as follows. Twenty microliters of glutathione Sepharose 4B slurry (AP Biotech) was aliquoted to a microcentrifuge tube and washed with PBS. The Bcl-XL-GST fusion protein (60 μg), prepared as describe above, was added and allowed to bind to the Sepharose beads for 1 hr at 4° C. The beads were then re-washed in selection buffer (50 mM Tris-HCL pH 7.5, 150 mM KCl, 0.05% Triton X-100, 0.5 mg/ml BSA, and 0.1 mg/ml salmon sperm DNA). The Bcl-XL-GST beads were resuspended in 100 μl of selection buffer (approximately 11.5 μM Bcl-XL) and ³⁵S-labeled mRNA display construct or free peptide was added (approximately 10-60 nM) and incubated on a rotator for 1 hr at 4° C. The reaction was then transferred to a microcentrifuge column (BioRad) and unbound mRNA display constructs or free peptides were removed by a 10 sec spin at 1,000 rpm. The Sepharose beads were then washed three times with 500 μl of selection buffer. The extent of binding between the Bcl-XL-GST fusion protein and the mRNA display constructs or free peptides was determined by scintillation counting each fraction, including the recovered beads.
Purified radioactively labeled protein from the individual clones was incubated with immobilized Bcl-XL-GST for one hour and, after washing, the amount bound was determined by scintillation counting. The binding at each concentration was normalized to that at the highest concentration and plotted versus concentration. FIG. 5 is a representational plot of the results of this binding assay. A selected Bak fragment ([…]; SEQ ID NO: 152), containing a FLAG-M2 epitope, was synthetically produced as a free protein and used in a binding assay in which the concentration of immobilized Bcl-XL-GST was varied from 11 nM to 28 μM. The amount of peptide bound to Bcl-XL was determined by scintillation counting and normalized to that bound at the highest concentration. Normalized binding was then plotted versus Bcl-XL concentration and fit to a binding curve using nonlinear regression. […] However, only binding curves that gave a high correlation coefficient ® value) were used to determine an affinity.

[6] = target: T3, human Bcl-XL-GST fusion protein; assay: second mRNA display selection on immobilized Bcl-XL-GST

Molecule | Kd [5] [nM] | also measured
t53: selected Bcl-XL-binding polypeptide, SEQ ID NO: 25 (LDPVKDVLILSALRRMLWAADDFLEDLPFEQIG; listed as Homo sapiens) | – | competition by Bak BH3 domain (BakBH3 effect), bound normalized to reaction without competitor [1]: not competed at all
SRP9: selected SRP9 polypeptide of the additional selection, purified free polypeptide (IGEEFSRAAEKLYLAV) | – | Binding to the Bcl-XL-GST fusion protein [2]: 0.65%
x42: selected polypeptide, SEQ ID NO: 35; cDNA FLJ23277, Clone HEP03322 (Table 1) (NGNLFASFIADS) | – | competition by Bak BH3 domain (BakBH3 effect), bound normalized to reaction without competitor [1]: not competed at all
w75: selected Bcl-XL-binding polypeptide, SEQ ID NO: 37 (RTLQPRLLQNQQQHLPALPIWFLLQWLRLHPL; listed as Homo sapiens) | – | competition by Bak BH3 domain (BakBH3 effect), bound normalized to reaction without competitor [1]: not competed at all
B1 | – | binding result [3]: binds
B2 | – | binding result [4]: binds
AVQEDPVQREIHQDWANREYIEIITSSIKKIAD (also called HSCP300) [HSPC300, clone C68] | 580 | –
B3 | 420 | –
B4 | – | binding result [3]: binds
TLREIGDLYLTSILGRR (Second selection) [SEQ ID NO 230] | – | binding result [6]: binds
GQVGRQLAIIGDDINRRK [Bak, clone C32] | 402 | –
B5 | – | binding result [4]: binds
GTRQDRMFETMAIEIEQLLARLTGVNDKMAEYTNA [Golgi SNAP receptor complex member 1, clone V06] | 467 | –
B6 | – | binding result [6]: binds
B7 | – | binding result [6]: binds
KLSECLKRIGDELDSNMELQRMIAAVDTDSPR (peptide, UniProt Q07812 58-89, looked up) [Bax, clone C49] | 760 | –
MKWDTDNTLGTEISWENKLAEGLKLTLDTIFVHHVLHAPH-{FLAG‑M2 epitope} (also: 35S-Met labelled in vitro translation product) [Voltage dependent anion channel 3, clone W06] | 1120 | –
FWLEERDFEAGVFELEAIVNSIKRS [Toll-like receptor 3, clone U15] | 781 | –
B8 | 1610 | –
B9 | – | binding result [4]: binds
B10 | 93 | –
SRREEAWDALFRGI (Second selection) [SEQ ID NO 229] | – | binding result [6]: binds
ATRQALNEISARHSGIQQLERSIRELHDIFTFL [Syntaxin 4A, clone U58] | 640 | –
MFSDIYGIREIADGLCLEVEGKMVSRPE [Tumor protein HDCMB21P, clone V50] | 690 | –
ASMRQAEPADMRPEIWIAQELRRIGDEFNAYYARE (fragment limits not in text) [Bim, clone T44] | 2 | –
B11 | – | binding result [6]: binds
QRGMLYYQTEKYDLAIKDLKEALIQLRGNN (fragment limits not in text) [Neutrophil cytosolic factor 2, clone T95] | 4.16 | –
IAQATKATIDKWNCIKLKIFYTSKKEAS-{FLAG‑M2 epitope} (also: 35S-Met labelled in vitro translation product) [Novel protein I, clone C21] | 70 | –
